Measurements: publication PMC4899734, “Selective inhibition of apicoplast tryptophanyl-tRNA synthetase causes delayed death in Plasmodium falciparum” (Scientific Reports, 2016)

T1: apicoplast tryptophanyl-tRNA synthetase (TrpRS^api, PF3D7_1251700) (Plasmodium falciparum, UniProt A0A144A140)
T1 sequence (A0A144A140 61-559): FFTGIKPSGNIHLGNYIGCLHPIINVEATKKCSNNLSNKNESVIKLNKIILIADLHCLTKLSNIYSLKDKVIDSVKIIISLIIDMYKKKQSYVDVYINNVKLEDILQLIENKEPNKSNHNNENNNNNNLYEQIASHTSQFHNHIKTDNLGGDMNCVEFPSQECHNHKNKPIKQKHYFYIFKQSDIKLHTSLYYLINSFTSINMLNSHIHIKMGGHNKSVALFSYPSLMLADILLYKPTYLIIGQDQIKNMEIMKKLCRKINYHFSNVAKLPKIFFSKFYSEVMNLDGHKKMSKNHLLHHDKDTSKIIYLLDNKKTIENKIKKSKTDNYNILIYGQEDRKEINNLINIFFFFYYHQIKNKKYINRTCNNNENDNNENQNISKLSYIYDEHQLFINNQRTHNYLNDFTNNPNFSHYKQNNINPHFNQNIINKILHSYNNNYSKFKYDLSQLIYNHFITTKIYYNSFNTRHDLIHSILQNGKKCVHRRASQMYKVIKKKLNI

B1: cytosolic tryptophanyl-tRNA synthetase (TrpRS^cyt, PF3D7_1336900) (Plasmodium falciparum 3D7) (protein)
chain: KDVTPWDVNINNEEGINYNKLIKEFGCSKITENHIKRIEKLTNSKAHHFIRRGIFFSHRDLDFLLNYYEQHKCFYIYTGRGPSSLSMHLGHLIPFYFCKYLQEAFNVPLVIQLSDDEKYLFNQNYSLEYINTLTNENVKDIISVGLNPELTFIFKNTEYAGYLYPTVLSIHKKTTLNQSMNVFGFNHSDNIGKISYPSFQIAPCFSQCFPNFLGKNIPCLVPQGIDQDPYFRLSRDIAVKMALHKPVVVHSVFMPGLQGVNSKMSSTKKKKDDNGKSNSTFDHNNSVIFLTDTPEQIKNKINKYAFSGGGTTIQEHREKGGNLDKDISYQYLRYLLEDDNKLNEIGEKYKKGEMLSGEIKKILIDVLTELVLKHQEKKKSLTDEEISYFFDPNKPSLQKFKNM
B2: apicoplast tryptophanyl-tRNA synthetase (TrpRS^api, PF3D7_1251700) (Plasmodium falciparum 3D7) (protein)
chain: T1 sequence (A0A144A140 61-559)

Tests used:
[1] = target: T1, apicoplast tryptophanyl-tRNA synthetase (TrpRS^api, PF3D7_1251700); assay: radiolabelled tryptophan tRNA aminoacylation assay with purified recombinant enzyme, […] indolmycin; assay type: biochemical
[2] = substrate: N[C@@H](Cc1c[nH]c2ccccc12)C(=O)O; assay: steady-state aminoacylation kinetics with purified enzyme (apparent Km); assay type: biochemical, Plasmodium falciparum; conditions: ATP, Mg2+
[3] = substrate: Nc1ncnc2c1ncn2[C@@H]1O[C@H](COP(=O)(O)OP(=O)(O)OP(=O)(O)O)[C@@H](O)[C@H]1O; assay: as above; assay type: biochemical, Plasmodium falciparum; conditions: Mg2+

Row | Molecule | radiolabelled tryptophan tRNA aminoacylation assay with purified recombinant enz [1] | Km [2] [µM] | Vmax [2] [µmol/min] | Km [3] [µM] | Vmax [3] [µmol/min]
1 | CNC1=NC(=O)[C@H]([C@H](C)c2c[nH]c3ccccc23)O1 [indolmycin] | at higher concentrations of indolmycin, tRNA^trp formation by TrpRS^api was reduced to background levels | – | – | – | –
2 | B1 | – | 15.6 ± 0.6 | 0.077 | 622 ± 0.3 | 0.292
3 | B2 | – | 5.3 ± 1.2 | 0.029 | – | –
